{"source": "paper PMC5745067", "about": "(Neuron, 2017)", "molecules": {"B1": {"name": "extracellular domain of rat NLGN2 (Val43-His612, containing the site A insert) (domain or fragment, UniProt Q62888-1 43-612, looked up)", "chain": "VVNTAYGRVRGVRRELNNEILGPVVQFLGVPYATPPLGARRFQPPEAPASWPGVRNATTLPPACPQNLHGALPAIMLPVWFTDNLEAAATYVQNQSEDCLYLNLYVPTEDGPLTKKRDEATLNPPDTDIRDSGKKPVMLFLHGGSYMEGTGNMFDGSVLAAYGNVIVATLNYRLGVLGFLSTGDQAAKGNYGLLDQIQALRWLSENIAHFGGDPERITIFGSGAGASCVNLLILSHHSEGLFQKAIAQSGTAISSWSVNYQPLKYTRLLAAKVGCDREDSTEAVECLRRKSSRELVDQDVQPARYHIAFGPVVDGDVVPDDPEILMQQGEFLNYDMLIGVNQGEGLKFVEDSAESEDGVSASAFDFTVSNFVDNLYGYPEGKDVLRETIKFMYTDWADRDNGEMRRKTLLALFTDHQWVAPAVATAKLHADYQSPVYFYTFYHHCQAEGRPEWADAAHGDELPYVFGVPMVGATDLFPCNFSKNDVMLSAVVMTYWTNFAKTGDPNQPVPQDTKFIHTKPNRFEEVVWSKFNSKEKQYLHIGLKPRVRDNYRANKVAFWLELVPHLHNLH"}, "B2": {"name": "MDGA1 C8 (Ig1–Ig2; Y22-T237) (domain or fragment, human, UniProt Q8NFP4-1 22-237, looked up)", "chain": "YAPAQAQIVHAGQACVVKEDNISERVYTIREGDTLMLQCLVTGHPRPQVRWTKTAGSASDKFQETSVFNETLRIERIARTQGGRYYCKAENGVGVPAIKSIRVDVQYLDEPMLTVHQTVSDVRGNFYQEKTVFLRCTVNSNPPARFIWKRGSDTLSHSQDNGVDIYEPLYTQGETKVLKLKNLRPQDYASYTCQVSVRNVCGIPDKAITFRLTNTT", "modifications": "TAMRA label ((5/6)-TAMRA-SE) in the FP assays; no label told for the crystals"}, "B3": {"name": "MDGA1 C4 (Ig1–Ig4; Y22-I433) (domain or fragment, human, UniProt Q8NFP4-1 22-433, looked up)", "chain": "YAPAQAQIVHAGQACVVKEDNISERVYTIREGDTLMLQCLVTGHPRPQVRWTKTAGSASDKFQETSVFNETLRIERIARTQGGRYYCKAENGVGVPAIKSIRVDVQYLDEPMLTVHQTVSDVRGNFYQEKTVFLRCTVNSNPPARFIWKRGSDTLSHSQDNGVDIYEPLYTQGETKVLKLKNLRPQDYASYTCQVSVRNVCGIPDKAITFRLTNTTAPPALKLSVNETLVVNPGENVTVQCLLTGGDPLPQLQWSHGPGPLPLGALAQGGTLSIPSVQARDSGYYNCTATNNVGNPAKKTVNLLVRSMKNATFQITPDVIKESENIQLGQDLKLSCHVDAVPQEKVTYQWFKNGKPARMSKRLLVTRNDPELPAVTSSLELIDLHFSDYGTYLCMASFPGAPVPDLSVEVNI", "modifications": "TAMRA label ((5/6)-TAMRA-SE) in the FP assay"}, "B4": {"name": "MDGA1 C2 (Ig1–Ig3; Y22-K330) (domain or fragment, human, UniProt Q8NFP4-1 22-330, looked up)", "chain": "YAPAQAQIVHAGQACVVKEDNISERVYTIREGDTLMLQCLVTGHPRPQVRWTKTAGSASDKFQETSVFNETLRIERIARTQGGRYYCKAENGVGVPAIKSIRVDVQYLDEPMLTVHQTVSDVRGNFYQEKTVFLRCTVNSNPPARFIWKRGSDTLSHSQDNGVDIYEPLYTQGETKVLKLKNLRPQDYASYTCQVSVRNVCGIPDKAITFRLTNTTAPPALKLSVNETLVVNPGENVTVQCLLTGGDPLPQLQWSHGPGPLPLGALAQGGTLSIPSVQARDSGYYNCTATNNVGNPAKKTVNLLVRSMK", "modifications": "TAMRA label ((5/6)-TAMRA-SE) in the FP assay"}}, "key": {"[1]": {"molecular_target": "neurexin 1β (UniProt P58400)", "sequence (P58400 51-396)": "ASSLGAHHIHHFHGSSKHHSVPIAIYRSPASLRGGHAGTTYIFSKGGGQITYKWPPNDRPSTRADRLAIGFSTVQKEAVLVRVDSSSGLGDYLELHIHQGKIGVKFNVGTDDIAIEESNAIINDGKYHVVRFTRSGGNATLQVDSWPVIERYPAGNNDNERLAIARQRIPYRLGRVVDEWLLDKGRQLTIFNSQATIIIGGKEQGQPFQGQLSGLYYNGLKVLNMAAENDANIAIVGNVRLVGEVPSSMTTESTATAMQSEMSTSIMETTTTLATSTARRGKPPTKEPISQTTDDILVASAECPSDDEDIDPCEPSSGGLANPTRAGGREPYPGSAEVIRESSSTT", "assay": "SPR", "conditions": "cited from earlier work"}, "[2]": {"molecular_target": "NLGN2-Fc (UniProt Q8NFZ4)", "sequence (Q8NFZ4 15-677)": "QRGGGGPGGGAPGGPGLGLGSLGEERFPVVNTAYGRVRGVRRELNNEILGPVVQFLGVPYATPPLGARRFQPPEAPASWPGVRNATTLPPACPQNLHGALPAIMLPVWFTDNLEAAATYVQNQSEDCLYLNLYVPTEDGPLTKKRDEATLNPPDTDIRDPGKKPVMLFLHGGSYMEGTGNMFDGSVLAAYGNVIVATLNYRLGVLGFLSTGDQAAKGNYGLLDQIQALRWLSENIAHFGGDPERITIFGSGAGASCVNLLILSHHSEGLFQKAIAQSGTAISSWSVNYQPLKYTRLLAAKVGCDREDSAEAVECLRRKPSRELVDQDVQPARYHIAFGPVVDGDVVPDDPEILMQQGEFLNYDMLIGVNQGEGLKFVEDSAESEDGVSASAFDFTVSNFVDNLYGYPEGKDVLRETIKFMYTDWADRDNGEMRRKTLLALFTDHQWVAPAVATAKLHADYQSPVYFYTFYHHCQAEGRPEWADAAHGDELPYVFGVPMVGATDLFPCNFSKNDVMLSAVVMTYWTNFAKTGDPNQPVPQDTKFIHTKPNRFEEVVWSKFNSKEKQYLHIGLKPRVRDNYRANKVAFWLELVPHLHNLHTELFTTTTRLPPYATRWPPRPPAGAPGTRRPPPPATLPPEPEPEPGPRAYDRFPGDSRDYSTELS", "assay": "cell-surface binding assay", "conditions": "cited from earlier work"}, "[3]": {"molecular_target": "the molecule itself", "assay": "crystal structure"}, "[4]": {"molecular_target": "B1", "assay": "fluorescence polarisation"}}}
{"molecule": "NLGN1 (from UniProt Q62765)", "values": [{"measurement": "Kd", "setting": "[1]", "result": "> 10000", "unit": "nM"}]}
{"molecule": "MDGA1 (from UniProt Q8NFP4)", "values": [{"measurement": "Kd", "setting": "[2]", "result": 7, "unit": "nM"}]}
{"molecule": "MDGA2 (from UniProt Q7Z553)", "values": [{"measurement": "Kd", "setting": "[2]", "result": 46, "unit": "nM"}]}
{"molecule": "B1", "values": [{"measurement": "stoichiometry N", "setting": "[3]", "result": 2}]}
{"molecule": "B2", "values": [{"measurement": "Kd", "setting": "[4]", "result": 21, "unit": "nM"}]}
{"molecule": "B3", "values": [{"measurement": "binding result", "setting": "[4]", "result": "binds"}]}
{"molecule": "B4", "values": [{"measurement": "binding result", "setting": "[4]", "result": "binds"}]}
